Measured values: patent publication US20230212319A1, “NOVEL ANTIGEN BINDING DOMAINS AND SYNTHETIC ANTIGEN RECEPTORS INCORPORATING THE SAME” (University of Southern California, priority 2020, published 2023)

B1: 22003 (protein)
chain: MALPVTALLLPLALLLHAARPLEGKPIPNPLLGLDSTGSGEDLKNVFPPEVAVFEPSKAEIAHTQKATLVCLATGFYPDHVELSWWVNGKEVHSGVCTDPQPLKEQPALNDSRYCLSSRLRVSATFWQNPRNHFRCQVQFYGLSENDEWTQDRAKPVTQIVSAEAWGRADCGITSASYHQGVLSATILYEILLGKATLYAVLVSALVLMAMVKRKDSRGRAKRSGSGATNFSLLKQAGDVEENPGPTSTMALPVTALLLPLALLLHAARPQLQLQESGPGLVKPSETLSLTCTVSGDSISSGDYYWGWIRQPPGKGLEWIGHIYYSGVTYYNPSLKSRVTISVDTSRNQFSLKLSSVTAADTAVYYCTREDSSNWRSRGQGTLVTVSSLESGGGGSFEEVQLLESGGGLVQPGGSLRLSCAASGFTFSSYAMSWVRQAPGKGLEWVSSISGSGDYIYYADSVKGRFTISRDISKNTLYLQMNSLRAEDTAVYYCAKEGTGANSSLADYRGQGTLVTVSSTREQKLISEEDGSGIQNPDPAVYQLRDSKSSDKSVCLFTDFDSQTNVSQSKDSDVYITDKCVLDMRSMDFKSNSAVAWSNKSDFACANAFNNSIIPEDTFFPSSDVPCDVKLVEKSFETDTNLNFQNLSVIGFRILLLKVAGFNLLMTLRLWSSRAKRSGSGVKQTLNFDLLKLAGDVESNPGPSRGHMTEYKPTVRLATRDDVPRAVRTLAAAFADYPATRHTVDPDRHIERVTELQELFLTRVGLDIGKVWVADDGAAVAVWTTPESVEAGAVFAEIGPRMAELSGSRLAAQQQMEGLLAPHRPKEPAWFLATVGVSPDHQGKGLGSAVVLPGVEAAERAGVPAFLETSAPRNLPFYERLGFTVTADVEVPEGPRTWCMTRKPGA
B2: 22004 (protein)
chain: MALPVTALLLPLALLLHAARPLEGKPIPNPLLGLDSTGSGEDLKNVFPPEVAVFEPSKAEIAHTQKATLVCLATGFYPDHVELSWWVNGKEVHSGVCTDPQPLKEQPALNDSRYCLSSRLRVSATFWQNPRNHFRCQVQFYGLSENDEWTQDRAKPVTQIVSAEAWGRADCGITSASYHQGVLSATILYEILLGKATLYAVLVSALVLMAMVKRKDSRGRAKRSGSGATNFSLLKQAGDVEENPGPTSTMALPVTALLLPLALLLHAARPQLQLQESGPGLVKPSETLSLTCTVSGDSISSGDYYWGWIRQPPGKGLEWIGHIYYSGVTYYNPSLKSRVTISVDTSRNQFSLKLSSVTAADTAVYYCTREDSSNWRSRGQGTLVTVSSLESGGGGSFEQVQLVESGGGLVQPGGSLRLSCAASGFTFTNHAMSWVRQAPGKGLELVSSISGNGRTTYYADSVKGRFTISRDISKNTLDLQMNSLRAEDTAVYYCAKDGGETLVDSRGQGTLVTVSSTREQKLISEEDGSGIQNPDPAVYQLRDSKSSDKSVCLFTDFDSQTNVSQSKDSDVYITDKCVLDMRSMDFKSNSAVAWSNKSDFACANAFNNSIIPEDTFFPSSDVPCDVKLVEKSFETDTNLNFQNLSVIGFRILLLKVAGFNLLMTLRLWSSRAKRSGSGVKQTLNFDLLKLAGDVESNPGPSRGHMTEYKPTVRLATRDDVPRAVRTLAAAFADYPATRHTVDPDRHIERVTELQELFLTRVGLDIGKVWVADDGAAVAVWTTPESVEAGAVFAEIGPRMAELSGSRLAAQQQMEGLLAPHRPKEPAWFLATVGVSPDHQGKGLGSAVVLPGVEAAERAGVPAFLETSAPRNLPFYERLGFTVTADVEVPEGPRTWCMTRKPGA
B3: 22005 (protein)
chain: MALPVTALLLPLALLLHAARPLEGKPIPNPLLGLDSTGSGEDLKNVFPPEVAVFEPSKAEIAHTQKATLVCLATGFYPDHVELSWWVNGKEVHSGVCTDPQPLKEQPALNDSRYCLSSRLRVSATFWQNPRNHFRCQVQFYGLSENDEWTQDRAKPVTQIVSAEAWGRADCGITSASYHQGVLSATILYEILLGKATLYAVLVSALVLMAMVKRKDSRGRAKRSGSGATNFSLLKQAGDVEENPGPTSTMALPVTALLLPLALLLHAARPEVQLVESGGGLVQPGGSLRLSCAASGFNIKDTCIGWVRRAPGKEEELVAKICKYSGHTRYADSVKGRFTISADTSKNTAYLQMNSLRAEDTAVYYCAAVSVRDGHYNYWGQGTTVTVSSTREQKLISEEDGSGIQNPDPAVYQLRDSKSSDKSVCLFTDFDSQTNVSQSKDSDVYITDKCVLDMRSMDFKSNSAVAWSNKSDFACANAFNNSIIPEDTFFPSSDVPCDVKLVEKSFETDTNLNFQNLSVIGFRILLLKVAGFNLLMTLRLWSSRAKRSGSGVKQTLNFDLLKLAGDVESNPGPSRGHMTEYKPTVRLATRDDVPRAVRTLAAAFADYPATRHTVDPDRHIERVTELQELFLTRVGLDIGKVWVADDGAAVAVWTTPESVEAGAVFAEIGPRMAELSGSRLAAQQQMEGLLAPHRPKEPAWFLATVGVSPDHQGKGLGSAVVLPGVEAAERAGVPAFLETSAPRNLPFYERLGFTVTADVEVPEGPRTWCMTRKPGA
B4: 22118 (protein)
chain: MALPVTALLLPLALLLHAARPEVQLVESGGGLVQPGGSLRLSCTFSGGTFSSYTMGWFRQAPGKEREFVAEVRWGGVTTYSNSLKDRFSISEDSVKNAVYLQMNSLKPEDTAVYYCAAVRQMYMTVVPDYWGQGTLVTVSSSGGGGSDIQMTQSPSSLSASVGDRVTITCKASDHINNWLAWYQQKPGKAPKLLIYGATTLETGVPSRFSGSGSGTDFTLTISSLQPEDFATYYCQQSWNTPWTFGQGTKVEIKRLEDLKNVFPPEVAVFEPSEAEISHTQKATLVCLATGFYPDHVELSWWVNGKEVHSGVCTDPQPLKEQPALNDSRYCLSSRLRVSATFWQNPRNHFRCQVQFYGLSENDEWTQDRAKPVTQIVSAEAWGRADCGFTSESYQQGVLSATILYEILLGKATLYAVLVSALVLMAMVKRKDSRGRAKRSGSGATNFSLLKQAGDVEENPGPTSMDWIWRILFLVGAATGAHSFEVQLVESGGGLVQPGGSLRLSCAASGYAFSSYWVNWVRQAPGKGLEWVAQIYPGDGDTNYNGKFKGRFTISRDNSKNTLYLQMNSLRAEDTAVYYCARSITTVVGCAMDYWGQGTLVTVSSTRIQNPDPAVYQLRDSKSSDKSVCLFTDFDSQTNVSQSKDSDVYITDKCVLDMRSMDFKSNSAVAWSNKSDFACANAFNNSIIPEDTFFPSPESSCDVKLVEKSFETDTNLNFQNLSVIGFRILLLKVAGFNLLMTLRLWSSRAKRSGSGVKQTLNFDLLKLAGDVESNPGPSRGHMTEYKPTVRLATRDDVPRAVRTLAAAFADYPATRHTVDPDRHIERVTELQELFLTRVGLDIGKVWVADDGAAVAVWTTPESVEAGAVFAEIGPRMAELSGSRLAAQQQMEGLLAPHRPKEPAWFLATVGVSPDHQGKGLGSAVVLPGVEAAERAGVPAFLETSAPRNLPFYERLGFTVTADVEVPEGPRTWCMTRKPGA

Columns and labels:
Assay type in all cases: cell-based
[1] = test system: Nalm6 cells; assay: JNG assay, co-culture with Nalm6 cells; details: co-culture with Nalm6
How it was run: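 Jurkat NFAT-GFP reporter cells stably expressing lentivirally transduced SARs, drug-selected where possible, were co-cultured with target cells at E:T ≈1:2 for ~4–18 h. GFP measured by FACS; scored +/- to 5+ (~5–50% GFP+ cells) above parental reporter cells.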

[2] = test system: RAJI cells; assay: JNG assay, co-culture with RAJI cells; details: JNG cells expressing construct, co-culture with Raji
How it was run: (§1)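 Jurkat-NFAT-GFP (JNG) cells stably expressing SAR constructs via lentiviral transduction and puromycin/blasticidin selection were cocultured with target cells at E:T ~1:2 for ~4–18 h. NFAT-driven GFP was measured by FACS versus parental JNG cells; scores +/- to 5+ denote ~5–50% GFP-positive cells.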

[3] = test system: L363 cells; assay: JNG assay, co-culture with L363 cells; details: co-culture with L363
How it was run: as §1

[4] = test system: DAUDI; assay: JNG assay, co-culture with DAUDI cells
Procedure: Cellular supernatant is collected and assayed for the induction of cytokines (e.g., IL2).
JNG (Jurkat cells expressing EGFP under an NFAT promoter) were infected with lentiviral vectors encoding different single chain and multi-chain SARs by spinfection in the presence of 8 µg/ml of Polybrene® (Sigma, Catalog no. H9268). The Jurkat-NFAT-GFP cells are engineered in such a way that the IL-2 promoter, which carries NFAT binding sites, is cloned upstream of the GFP gene. These cells have been used to study signaling via TCR and CAR. The different SARs were stably expressed in Jurkat NFAT-GFP cells by lentiviral mediated gene transfer, followed by selection with puromycin or blasticidin. No drug selection was used in case the construct lacked an antibiotic resistance gene. The SAR-expressing Jurkat-NFAT-GFP cells were cocultured with the target cells at E:T ratio of approximately 1:2 for approximately 4 hours to 18 hours. When the interaction between SIRs and their target antigen results in activation of the NFAT pathway, GFP expression is induced. […] GFP expression was monitored by FACS analysis. The Jurkat-NFAT-GFP (parental) cells were used as control. The structure of different constructs can be determined based on their names. […] The sequence of the other constructs in the table can be similarly determined from their names and by referring to the different Tables of this disclosure that provide the names and SEQ ID NO of the different modules. Alternatively, the composition and modular architecture of the different SAR constructs can be determined from their sequences by bioinformatics tools, including using nucleic acid and amino acids homology searches. A SAR is considered positive in the assay in case the SAR expressing Jurkat-NFAT-GFP cells show greater % GFP positive cells when cultured with the target cell line as compared to parental Jurkat-NFAT-GFP cells. […] In general, the number +/-, +, 2+, 3+, 4+, 5+ refer to approximately 5%, 10%, 20%, 30%, 40% and 50% GFP positive cells. […]

[5] = test system: LoVo; assay: JNG NFAT-GFP assay, co-culture with LoVo cells
[6] = test system: RS;411; assay: JNG assay, co-culture with RS;411 cells; details: co-culture with RS411
How it was run: as §1

[7] = test system: RAJI-CD19-KO cells; assay: JNG assay, co-culture with RAJI-CD19-KO cells; details: co-culture with Raji-CD19-KO
How it was run: as §1

Molecule | NFAT-GFP ASSAY: Nalm6 [1] | NFAT-GFP ASSAY: Raji [2] | NFAT-GFP ASSAY: L363 [3] | NFAT-GFP ASSAY: Daudi [4] | NFAT-GFP ASSAY: LoVo [5] | NFAT-GFP ASSAY: RS411 [6] | NFAT-GFP ASSAY: Raji-CD19-KO [7]
B1 | +/- (refer to approximately 5%, 10%, 20%, 30%, 40% and 50% GFP positive cells) | + (refer to approximately 5%, 10%, 20%, 30%, 40% and 50% GFP positive cells) | + (refer to approximately 5%, 10%, 20%, 30%, 40% and 50% GFP positive cells) | +/- (refer to approximately 5%, 10%, 20%, 30%, 40% and 50% GFP positive cells) | – | – | –
B2 | +/- (refer to approximately 5%, 10%, 20%, 30%, 40% and 50% GFP positive cells) | + (refer to approximately 5%, 10%, 20%, 30%, 40% and 50% GFP positive cells) | + (refer to approximately 5%, 10%, 20%, 30%, 40% and 50% GFP positive cells) | +/- (refer to approximately 5%, 10%, 20%, 30%, 40% and 50% GFP positive cells) | – | – | –
B3 | – | – | – | – | +/- (refer to approximately 5%, 10%, 20%, 30%, 40% and 50% GFP positive cells) | – | –
B4 | 3+ (refer to approximately 5%, 10%, 20%, 30%, 40% and 50% GFP positive cells) | 3+ (refer to approximately 5%, 10%, 20%, 30%, 40% and 50% GFP positive cells) | – | 3+ (refer to approximately 5%, 10%, 20%, 30%, 40% and 50% GFP positive cells) | – | 3+ (refer to approximately 5%, 10%, 20%, 30%, 40% and 50% GFP positive cells) | 2+ (refer to approximately 5%, 10%, 20%, 30%, 40% and 50% GFP positive cells)
